Data on 1 molecule can be found in patent publication US11352401.

In this assay the target is HLA-A*01 (human). Briefly: UV peptide-exchange ELISA; ++++ = yield >75%. The note with it: remark: other sources report otherwise. (In general: In an ELISA, binding on a coated surface is turned into a signal by an enzyme label.)

B1: … (SEQ ID NO: 164) (peptide)
peptide: NTDNNLAVY
In turn, B1 gave a peptide exchange yield of more than 75%.
